Measurements published in patent US20240277803A1, “NME INHIBITORS AND METHODS OF USING NME INHIBITORS” (Minerva Biotechnologies Corporation, priority 2013, published 2024).

Tests used:
[1] = molecular target: T1, MUC1* extra cellular domain peptides (Homo sapiens, UniProt P15941); assay: ELISA sandwich assay, NME7-AB dimerizes MUC1* peptide (FIG. 8); type: binding
T1 sequence (P15941 1110-1154): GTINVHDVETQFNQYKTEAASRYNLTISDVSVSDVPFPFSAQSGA
Excerpt: We made several constructs for expression of a human NME7. One of these constructs expressed well in E. coli, was secreted in soluble form as a monomer and functioned approximately as NME1 dimers did for promoting stem cell growth, pluripotency and inhibition of differentiation. In this construct, the leader sequence “DM10” was omitted from the sequence. This generated a species that was approximately the same molecular weight, 33 kDa, as the secreted form of the protein. The protein was made as a Histidine tagged protein and first purified over an NTA-Ni column, then by FPLC with greater than 98% purity. We call this form of NME7, NME7-AB. […]
The PSMGFR peptide bearing a C-terminal Cysteine (PSMGFR-Cys) was covalently coupled to BSA using Imject Maleimide activated BSA kit (Thermo Fisher). […] After 1h at RT the plate was washed 3× with PBS-T and binding of NME7 was measured at 415 nm using a ABTS solution (Pierce). […]
After 1h at RT the plate was washed 3× with PBS-T and HisTagged PSMGFR peptide (PSMGFR-His) or biotinylated PSMGFR peptide (PSMGFR-biotin), diluted in PBS-T+1% BSA, was added at different concentration. […] After 1h at RT the plate was washed 3× with PBS-T and binding of PSMGFR peptide to NME7 already bound to another PSMGFR peptide (which could not signal by anti-His antibody or by streptavidin) coupled BSA was measured at 415 nm using a ABTS solution (Pierce).

[2] = tested on: A panel of cancer cells; assay: PCR of stem and cancer stem cell markers in cancer cells cultured in NME proteins; type: cell-based; details: cell type not given
Protocol: Another function that NME1 and NME7 have is the ability to transform cancer cells to the more metastatic cancer stem cell state, also called tumor initiating cells. A panel of cancer cells were cultured in a serum-free minimal base media with human NME7-AB or human NME1 dimers (‘NM23’ in figures) as the only growth factor or cytokine. After several days in this media, cells began to float off the surface and continued to grow in solution. The ‘floaters’ were collected and separately analyzed by PCR. Cells in other wells were treated with a rho kinase inhibitor (‘Ri in figures’). Quantitative PCR measurements show an increase of the cancer stem cell markers, some of which used to be thought of as stem cell markers only (Miki J et al 2007, Jeter C R et al 2011, Hong X et al 2012Faber A et al 2013, Mukherjee D et al 2013, Herreros-Villanueva M et al, 2013, Sefah K et al, 2013; Su H-T et al 2013). […] We observed a more modest, but trending, increase in markers of cancer stem cells and metastasis even in cells that were MUC1-negative (FIG. 47). We therefore conclude that NME7 likely is able to enter these cells by a route other than MUC1* wherein it can still act as a transcription factor and affect the expression levels of these genes. […] However, many cancers mutate NME1 so that it resists the formation of the self-replication limiting hexamer. Unlike NME1, NME7 is always active.
Standard methods were used to perform RT-PCR. The primers used are listed below: RNA was isolated using the Trizol® Reagent (Invitrogen) and cDNA was reverse transcribed with Random Hexamers (Invitrogren) using Super Script II (Invitrogen) and subsequently assayed for the genes FOXA2, XIST, KLF2, KLF4, NANOG and OCT4, using Applied Biosystems gene expression assays (OCT4 P/N Hs00999634_gH, Nanog P/N Hs02387400_g1, KLF2 P/N Hs00360439_g1, KLF4 P/N Hs00358836_m1, FOXa2 P/N Hs00232764_m1, OTX2 P/N Hs00222238_m1, LHX2 P/N Hs00180351_m1, XIST P/N Hs01079824 ml and GAPDH P/N 4310884E), on an Applied Biosystems 7500 real-time instrument. Each sample was run in triplicate. Gene expression was normalized to GAPDH. Data are expressed as a fold change relative to control.

B1: NME7-AB: recombinant human NME7 of NDPK A and B domains without the DM10 leader sequence, ~33 kDa (SEQ ID NO:39) (protein, listed as Homo sapiens)
chain: MEKTLALIKPDAISKAGEIIEIINKAGFTITKLKMMMLSRKEALDFHVDHQSRPFFNELIQFITTGPIIAMEILRDDAICEWKRLLGPANSGVARTDASESIRALFGTDGIRNAAHGPDSFASAAREMELFFPSSGGCGPANTAKFTNCTCCIVKPHAVSEGLLGKILMAIRDAGFEISAMQMFNMDRVNVEEFYEVYKGVVTEYHDMVTEMYSGPCVAMEIQQNNATKTFREFCGPADPEIARHLRPGTLRAIFGKTKIQNAVHCTDLPEDGLLEVQYFFKILDN
modifications: Human NME7-AB
simultaneous binding of two MUC1* extra cellular domain peptides (ELISA) [1]: can simultaneously bind two MUC1* extra cellular domain peptides | up-regulation of KLF4 [2]: 4 X | up-regulation of MUC1 [2]: 10 X | up-regulation of NANOG [2]: ~10 X | up-regulation of OCT4 [2]: ~50 X | up-regulation of SOX2 [2]: > 150 X | up-regulation of cancer stem cell marker CXCR4 [2]: ~200 X | up-regulation of cancer stem cell marker E-cadherin (CDH1) [2]: up-regulates
